The results in this text go back to article PMC3928423, “RRP6 from Trypanosoma brucei: Crystal Structure of the Catalytic Domain, Association with EAP3 and Activity towards Structured and Non-Structured RNA Substrates” (PLoS ONE, 2014).

Changes are numbered by the printed parent chain.

The target in data set [1] is TbRRP6ΔC (residues 20 to 540) (Trypanosoma brucei) (UniProt Q95Z10). Nature of the data set: SEC-MALS; HPLC (Shimadzu), Shodex KW-804 or KW-803 column, proteins at 5 mg/mL in 50 mM Tris-HCl pH 7.5, 500 mM NaCl, 5% glycerol, 0.5 mL/min; miniDAWN TREOS.
The target in data set [2] is TbEAP3ΔC2 (residues 1 to 144) (Trypanosoma brucei). The data set is described as above.
For data set [3] the target is unchanged. Nature of the data set: SEC-MALS; under reducing condition (10 mM DTT); data not shown. (SEC sorts molecules by how far they enter the pores of the column.)
A further data set deals with T1, TbEAP3ΔC1 (Trypanosoma brucei, UniProt Q582G1 1-183).
T1 sequence: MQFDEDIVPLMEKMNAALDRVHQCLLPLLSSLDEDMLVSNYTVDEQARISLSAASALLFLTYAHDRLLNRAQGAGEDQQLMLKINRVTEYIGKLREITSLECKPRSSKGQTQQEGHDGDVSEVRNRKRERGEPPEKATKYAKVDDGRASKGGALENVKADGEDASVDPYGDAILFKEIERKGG
Nature of the data set: EMSA; 5 mM MnCl2; protein 5-50 uM; 10 mM Tris-HCl pH 8.0, 10 mM DTT, 25 mM KCl, 5 mM MnCl2; 50 nM oligonucleotide; 5, 10 or 50 uM protein; 30 min on ice; native 6% gel, 0.25x TBE, 0.5% glycerol. Conditions: protein: recombinant, tags: pET21a, chain copies: 2. Background: In EMSA bound probe runs differently from free probe, usually more slowly.

Another data set addresses T2, TbEAP3ΔC2 (Trypanosoma brucei, UniProt Q582G1 1-144).
T2 sequence: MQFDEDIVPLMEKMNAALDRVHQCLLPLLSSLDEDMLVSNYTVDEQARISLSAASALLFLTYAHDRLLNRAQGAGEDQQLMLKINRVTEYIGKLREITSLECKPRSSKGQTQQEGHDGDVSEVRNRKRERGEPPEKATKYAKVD
The data set is described as above. The note with it: protein: recombinant, tags: pET21a, chain copies: 2.

Data set [4] concerns the molecule itself. Nature of the data set: SEC-MALS; HPLC (Shimadzu), Shodex KW-804 or KW-803 column, proteins at 5 mg/mL in 50 mM Tris-HCl pH 7.5, 500 mM NaCl, 5% glycerol, 0.5 mL/min; miniDAWN TREOS.
Where [5] appears, read: label: 5'-FAM on strand 1, blunt.
The mark [6] stands for this setting: label: 5'-FAM, hairpin with 20 nt 3' extension.

In the case of “TbEAP3ΔC2 (residues 1 to 144) (domain or fragment)”, the stoichiometry N (as a rule, the number of molecules, sites or subunits per partner or assembly) in data set [1] was 1; in data set [2], 2; in data set [3], 2.

B1: dsDNA (dsDNA)
DNA 1: CCAAAAAAAAAAAAACCACTCACTCACTCA
DNA 2: TGAGTGAGTGAGTGGTTTTTTTTTTTTTGG
Regarding B1, the binding result in the data set with TbEAP3ΔC1 (setting [5]) and in the data set with TbEAP3ΔC2 (setting [5]) was “no binding” throughout.
Take CCAAAAAAAAAAAAACCACUCACUCACUCA (ssRNA) [ssRNA]: the binding result was “no binding” with TbEAP3ΔC1 (label: 5'-FAM, single strand) and “no binding” with TbEAP3ΔC2 (label: 5'-FAM, single strand).
For the molecule AUUUAUUUAGGGCGGGCGCAAGCCCGCCCUAUUUAUUAUUUAUUAUUUA (structured_RNA) [GNRA20], the binding result with TbEAP3ΔC1 (setting [6]) and with TbEAP3ΔC2 (setting [6]) was “no binding” each time.
Regarding CCAAAAAAAAAAAAACCACTCACTCACTCA (ssDNA) [ssDNA], the binding result is “no binding” with TbEAP3ΔC1 (label: 5'-FAM, single strand) and “no binding” in the data set with TbEAP3ΔC2 (label: 5'-FAM, single strand).

B2: TbEAP3ΔC1 (residues 1 to 183) (domain or fragment, Trypanosoma brucei, UniProt Q582G1 1-183, looked up)
chain: T1 sequence
notes: TbEAP3, Trypanosoma brucei, gene Tb927.7.5460, residues 1-183 (C-terminal truncation); one copy in the heterodimer with TbRRP6ΔC; source: E. coli C3022 (pET21a), purified (His-Trap, Superdex 200, mono Q); also co-expressed with TbRRP6ΔC and co-purified
In the case of B2, the figures for the stoichiometry N in data set [1] and in data set [4] were 1 and 2, respectively.

B3: dsRNA (dsRNA)
RNA 1: B1 DNA 1 with T20U, T24U, T28U
RNA 2: UGAGUGAGUGAGUGGUUUUUUUUUUUUUGG
For B3, the binding result with TbEAP3ΔC1 (setting [5]) and with TbEAP3ΔC2 (setting [5]) was “no binding” in each case.
